Experiment [1] addresses T1, WRS (tryptophanyl-tRNA synthetase), purified recombinant antigen / standard (human, UniProt P23381 1-471, limits assumed).
T1 construct: The recombinant construct used for panning, SPR, Luminex beads and ELISA is not described; also called WRS 항원; 재조합 WRS 표준물질
T1 sequence (looked up): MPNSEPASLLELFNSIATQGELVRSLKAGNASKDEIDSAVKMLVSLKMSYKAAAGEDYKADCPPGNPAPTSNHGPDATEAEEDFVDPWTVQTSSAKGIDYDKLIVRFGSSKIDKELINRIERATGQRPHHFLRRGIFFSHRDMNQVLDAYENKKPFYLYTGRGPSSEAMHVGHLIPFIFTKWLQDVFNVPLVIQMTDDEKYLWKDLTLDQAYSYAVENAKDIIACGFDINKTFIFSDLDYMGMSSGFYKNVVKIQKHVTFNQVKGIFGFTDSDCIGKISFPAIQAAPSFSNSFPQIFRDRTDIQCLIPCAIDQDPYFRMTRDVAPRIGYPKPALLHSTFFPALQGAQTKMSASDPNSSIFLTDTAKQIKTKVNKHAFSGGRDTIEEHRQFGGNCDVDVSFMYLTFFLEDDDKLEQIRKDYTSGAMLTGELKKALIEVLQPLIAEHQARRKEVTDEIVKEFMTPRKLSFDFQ
The experiment can be described thus: SPR (ProteOn XPR36), WRS amine-coupled to GLC chip, scFv 500-30 nM as analyte, 25 C.

Experiment [2] has as its target T2, AIMP1 (Aminoacyl-tRNA-synthetase-interacting multifunctional protein 1), recombinant (UniProt Q12904 1-312, limits assumed).
T2 construct: also called p43; AIMP1(p43)
T2 sequence (looked up): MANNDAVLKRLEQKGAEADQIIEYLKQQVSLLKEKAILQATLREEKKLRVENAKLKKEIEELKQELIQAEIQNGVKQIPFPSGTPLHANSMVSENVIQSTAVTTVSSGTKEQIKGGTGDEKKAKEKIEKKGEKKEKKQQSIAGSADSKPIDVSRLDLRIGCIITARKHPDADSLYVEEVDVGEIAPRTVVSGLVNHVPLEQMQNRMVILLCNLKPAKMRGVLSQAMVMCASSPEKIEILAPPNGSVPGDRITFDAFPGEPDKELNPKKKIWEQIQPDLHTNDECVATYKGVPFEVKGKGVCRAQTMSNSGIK
The experiment can be described thus: Luminex multiplex bead assay, antigen coupled to beads, anti-HA-biotin / SA-PE detection.

Experiment [3] concerns the target T3, HRS (Histidyl-tRNA synthetase), recombinant (UniProt P12081 1-509, limits assumed).
T3 construct: also called 히스티딜-tRNA 합성효소
T3 sequence (looked up): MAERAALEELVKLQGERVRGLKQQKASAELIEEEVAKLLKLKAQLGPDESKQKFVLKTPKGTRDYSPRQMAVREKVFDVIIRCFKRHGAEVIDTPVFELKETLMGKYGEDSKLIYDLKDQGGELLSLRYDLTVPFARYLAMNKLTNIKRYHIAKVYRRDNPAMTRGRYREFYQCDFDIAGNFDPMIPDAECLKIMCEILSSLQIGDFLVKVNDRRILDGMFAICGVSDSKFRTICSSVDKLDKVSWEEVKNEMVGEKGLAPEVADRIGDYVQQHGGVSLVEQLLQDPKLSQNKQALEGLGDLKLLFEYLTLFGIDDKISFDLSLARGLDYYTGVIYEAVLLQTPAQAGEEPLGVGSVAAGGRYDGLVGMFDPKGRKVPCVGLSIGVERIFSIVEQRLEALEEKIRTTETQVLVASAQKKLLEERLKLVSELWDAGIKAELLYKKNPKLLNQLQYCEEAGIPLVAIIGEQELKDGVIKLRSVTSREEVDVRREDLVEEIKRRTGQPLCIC
The description is as above.

For experiment [4], the target named is T4, NRS (Asparaginyl-tRNA synthetase), recombinant (UniProt O43776 1-548, limits assumed).
T4 construct: also called 아스파라기닐딜-tRNA 합성효소
T4 sequence (looked up): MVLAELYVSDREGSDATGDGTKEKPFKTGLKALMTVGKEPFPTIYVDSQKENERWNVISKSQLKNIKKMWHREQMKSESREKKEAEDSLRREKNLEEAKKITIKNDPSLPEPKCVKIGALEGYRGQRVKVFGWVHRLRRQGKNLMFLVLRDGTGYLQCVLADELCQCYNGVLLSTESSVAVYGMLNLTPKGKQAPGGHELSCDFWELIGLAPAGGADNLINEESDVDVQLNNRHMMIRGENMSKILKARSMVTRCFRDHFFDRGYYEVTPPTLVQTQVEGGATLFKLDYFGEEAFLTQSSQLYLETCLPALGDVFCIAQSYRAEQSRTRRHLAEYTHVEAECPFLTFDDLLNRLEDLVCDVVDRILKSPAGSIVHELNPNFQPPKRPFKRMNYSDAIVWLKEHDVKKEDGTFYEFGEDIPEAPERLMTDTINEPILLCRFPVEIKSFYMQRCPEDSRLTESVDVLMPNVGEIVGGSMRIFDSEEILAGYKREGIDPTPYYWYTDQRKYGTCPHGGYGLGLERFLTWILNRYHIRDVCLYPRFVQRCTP
Described as above.

The target of experiment [5] is T5, KRS (Lysyl-tRNA synthetase), recombinant (UniProt Q15046 1-597, limits assumed).
T5 construct: also called 리실-tRNA 합성효소
Described as above.

For experiment [6], the target named is T6, SRS (Seryl-tRNA synthetase), recombinant (UniProt P49591 1-514, limits assumed).
T6 construct: also called 세릴-tRNA 합성효소
The experiment is described as above.

In experiment [7] the target is T7, YRS (Tyrosyl-tRNA synthetase), recombinant (UniProt P54577 1-528, limits assumed).
T7 construct: also called 타이로실-tRNA 합성효소
T7 sequence (looked up): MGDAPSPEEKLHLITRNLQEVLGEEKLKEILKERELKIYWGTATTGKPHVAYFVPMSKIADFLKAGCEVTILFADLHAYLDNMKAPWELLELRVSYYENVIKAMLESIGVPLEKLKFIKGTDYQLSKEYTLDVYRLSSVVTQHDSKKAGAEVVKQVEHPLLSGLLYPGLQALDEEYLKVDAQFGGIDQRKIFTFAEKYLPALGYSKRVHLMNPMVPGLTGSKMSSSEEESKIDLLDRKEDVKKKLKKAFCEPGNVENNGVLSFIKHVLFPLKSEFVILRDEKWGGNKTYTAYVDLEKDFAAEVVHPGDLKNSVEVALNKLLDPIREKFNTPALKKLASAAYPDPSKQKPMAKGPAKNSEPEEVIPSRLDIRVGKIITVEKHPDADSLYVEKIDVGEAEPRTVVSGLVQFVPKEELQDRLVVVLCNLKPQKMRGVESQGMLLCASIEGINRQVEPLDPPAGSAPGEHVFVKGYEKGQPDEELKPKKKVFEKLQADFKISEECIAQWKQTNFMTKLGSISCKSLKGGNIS
The experiment is described as above.

The target of experiment [8] is T8, GRS (Glycyl-tRNA synthetase), recombinant (UniProt P41250 55-739, limits assumed).
T8 construct: also called 글리실-tRNA 합성효소
T8 sequence (looked up): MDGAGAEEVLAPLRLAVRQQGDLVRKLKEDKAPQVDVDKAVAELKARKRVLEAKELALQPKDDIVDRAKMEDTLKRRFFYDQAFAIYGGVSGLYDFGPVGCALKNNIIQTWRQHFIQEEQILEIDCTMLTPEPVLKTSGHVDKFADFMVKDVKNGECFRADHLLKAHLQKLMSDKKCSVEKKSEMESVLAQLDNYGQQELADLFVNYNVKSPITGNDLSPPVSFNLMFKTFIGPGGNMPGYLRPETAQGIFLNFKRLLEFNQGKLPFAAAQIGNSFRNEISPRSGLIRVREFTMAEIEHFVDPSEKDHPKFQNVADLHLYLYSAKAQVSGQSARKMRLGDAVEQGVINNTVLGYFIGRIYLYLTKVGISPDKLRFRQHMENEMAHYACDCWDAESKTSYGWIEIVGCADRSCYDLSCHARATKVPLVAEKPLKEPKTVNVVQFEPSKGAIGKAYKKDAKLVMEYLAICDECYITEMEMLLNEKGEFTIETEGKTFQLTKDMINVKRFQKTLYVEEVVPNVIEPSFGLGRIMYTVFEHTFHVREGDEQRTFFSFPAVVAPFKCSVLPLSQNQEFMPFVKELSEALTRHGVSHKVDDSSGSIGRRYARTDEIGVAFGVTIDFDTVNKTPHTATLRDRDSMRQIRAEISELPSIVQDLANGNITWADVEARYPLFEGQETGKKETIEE
The experiment is described as above.

T5 sequence (Q15046 whole entry): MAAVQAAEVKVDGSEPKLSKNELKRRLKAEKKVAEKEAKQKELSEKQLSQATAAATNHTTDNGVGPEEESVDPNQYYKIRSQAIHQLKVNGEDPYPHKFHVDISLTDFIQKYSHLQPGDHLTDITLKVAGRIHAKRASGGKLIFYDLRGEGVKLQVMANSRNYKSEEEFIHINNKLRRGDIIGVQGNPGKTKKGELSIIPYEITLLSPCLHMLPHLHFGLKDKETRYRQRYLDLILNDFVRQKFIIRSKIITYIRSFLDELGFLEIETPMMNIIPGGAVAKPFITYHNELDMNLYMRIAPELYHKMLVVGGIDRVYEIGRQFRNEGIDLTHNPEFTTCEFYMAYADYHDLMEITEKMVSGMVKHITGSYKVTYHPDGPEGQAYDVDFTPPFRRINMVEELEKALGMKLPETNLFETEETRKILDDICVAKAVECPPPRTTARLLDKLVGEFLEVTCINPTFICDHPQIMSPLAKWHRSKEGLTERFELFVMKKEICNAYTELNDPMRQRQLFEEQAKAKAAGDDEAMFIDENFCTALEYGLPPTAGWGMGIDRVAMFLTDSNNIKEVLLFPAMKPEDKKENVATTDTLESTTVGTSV
T6 sequence (P49591 whole entry): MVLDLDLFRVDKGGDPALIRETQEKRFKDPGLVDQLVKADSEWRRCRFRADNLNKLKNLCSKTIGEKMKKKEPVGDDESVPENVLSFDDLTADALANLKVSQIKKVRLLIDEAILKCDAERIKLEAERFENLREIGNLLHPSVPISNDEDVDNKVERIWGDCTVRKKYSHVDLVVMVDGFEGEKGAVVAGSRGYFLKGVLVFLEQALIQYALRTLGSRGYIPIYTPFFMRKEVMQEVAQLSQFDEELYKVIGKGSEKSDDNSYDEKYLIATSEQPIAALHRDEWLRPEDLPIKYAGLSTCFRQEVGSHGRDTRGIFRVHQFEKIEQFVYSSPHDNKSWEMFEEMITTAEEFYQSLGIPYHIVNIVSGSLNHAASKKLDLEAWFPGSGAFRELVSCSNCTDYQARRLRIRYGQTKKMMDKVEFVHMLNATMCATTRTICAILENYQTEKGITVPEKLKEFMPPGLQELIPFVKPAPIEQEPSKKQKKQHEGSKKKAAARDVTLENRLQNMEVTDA

B1: anti-WRS scFv Biocon-W1 (scFv)
scFv: EVQLLESGGGLVQPGGSLRLSCAASGLAFSDYYMSWVRLAPGKGLEWVSVISPGSGSKYYADSVRGRFTVSRDNSKNTLYLQMNSLRAEDTAVYYCARKNQAFDYWGQGTLVTVSSGGGGSGGGGSGGGGSQSVLTQPPSASGTPGQRVTISCTGSSSNIGSNYVTWYQQLPGTAPKLLIYANSQRPSGVPDRFSGSKSGTSASLAISGLRSEDEADYYCASWDASLSGYVFGGGTKLTVL
notes: Single clone selected from a human VH3-23/VL1g synthetic scFv phage library and expressed in the E. coli periplasm; also called 항 WRS scFv 항체; 본 발명의 항체; not shown: His and HA tags from the pComb3X vector, implied by Ni-NTA purification and anti-HA detection
A word on the Kd: it is a measure of binding affinity in units of concentration. For B1, the Kd in experiment [1] was 700 nM. For the same molecule, the binding result in experiment [2], in experiment [3], in experiment [4], in experiment [5], in experiment [6] and in experiment [7] was “no binding” throughout. For the same molecule, the binding result in experiment [8] was “no binding”.
